The values that follow come from article PMC10965072.

This assay deals with TF-mCCP1 (maize (inbred line B73)).
Chain of TF-mCCP1 (maize (inbred line B73)) (Q10716 137-371): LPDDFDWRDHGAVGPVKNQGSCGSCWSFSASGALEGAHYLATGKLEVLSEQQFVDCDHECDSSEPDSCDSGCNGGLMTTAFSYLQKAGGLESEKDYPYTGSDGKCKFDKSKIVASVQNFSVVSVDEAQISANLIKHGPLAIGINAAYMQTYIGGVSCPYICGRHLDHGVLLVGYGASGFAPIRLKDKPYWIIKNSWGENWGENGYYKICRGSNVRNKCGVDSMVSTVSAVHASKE

Regarding GST-NIa-Pro (enzyme), the proteolytic activity of recombinant mCCP1 (TF tag removed) on a fluorescein-labeled casein substrate after pre-treatment with 0.5 μM GST-NIa-Pro, against GST was found to be 72 % decrease.
